One may read the Kd as the concentration at which binding is half-saturated. The koff is the rate constant with which the complex falls apart. As a reminder, the kon is the rate constant with which the complex forms.

The source of these data is patent US20100040606A1 (SYMPHOGEN A S, published 2010).

First the molecules themselves.
T1: soluble recombinant G protein (amino acids 66-292 of the 18537 strain sequence) (RSV strain 18537 (subtype B), UniProt P20896 66-292)
T1 construct: also called G(B); recombinant protein G
T1 sequence: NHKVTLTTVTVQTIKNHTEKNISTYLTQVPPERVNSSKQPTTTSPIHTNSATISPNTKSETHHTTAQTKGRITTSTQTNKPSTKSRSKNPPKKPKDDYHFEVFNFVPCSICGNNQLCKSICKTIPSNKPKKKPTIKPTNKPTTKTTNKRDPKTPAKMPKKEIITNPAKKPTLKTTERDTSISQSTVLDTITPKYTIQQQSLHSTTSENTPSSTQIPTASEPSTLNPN

T2: recombinant human fractalkine (CX3CL1; R&D systems) (human, UniProt P78423 25-100)
T2 sequence (looked up): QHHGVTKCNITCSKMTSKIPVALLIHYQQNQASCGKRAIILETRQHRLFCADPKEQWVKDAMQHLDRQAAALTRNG

B1: Fab fragment of antibody from clone 811 (Fab, V domains shown)
VH: QVQLVQSGAVVETPGASVKVSCKASGYIFGNYYIHWVRQAPGQGLEWMAVINPNGGSTTSAQKFQDRITVTRDTSTTTVYLEVDNLRSEDTATYYCARQRSVTGGFDAWLLIPDASNTWGQGTMVTVSS
VL: DIVMTQSPDSLAVSLGERATINCRSSETVLYTSKNQSYLAWYQQKARQPPKLLLYWASTRESGVPARFSGSGSGTDFTLAISSLQAEDVAVYYCQQFFRSPFTFGPGTRLEIKR
notes: also called Fab clone 811; 811 (G)
B2: Fab fragment of antibody from clone 796 (Fab, V domains shown)
VH: QVQLVESGGGVVQPGRSLRLSCAASGFSFSHFGMHWVRQVPGKGLEWVAIISYDGNNVHYADSVKGRFTISRDNSKNTLFLQMNSLRDDDTGVYYCAKDDVATDLAAYYYFDVWGRGTLVTVSS
VL: DIVMTQTPLSLSVTPGQPASISCRSSQSLLRSDGKTFLYWYLQKPGQSPQPLMYEVSSRFSGVPDRFSGSGSGADFTLNISRVETEDVGIYYCMQGLKIRRTFGPGTKVEIKR
notes: also called Fab clone 796; 796 (G)
B3: Fab fragment of antibody from clone 853 (Fab, V domains shown)
VH: EVQLVQSGAEVKKPGQSLKISCKTSGYIFTNYWIGWVRQRPGKGLEWMGVIFPADSDARYSPSFQGQVTISADKSIGTAYLQWSSLKASDTAIYYCARPKYYFDSSGQFSEMYYFDFWGQGTLVTVSS
VL: EIVLTQSPGTLSLSPGERATLSCRASQSVSSNYLAWYQQKPGQAPRLLIYGASSRAAGMPDRFSGSGSGTDFTLTISRLEPEDFAVYYCQQYGNSPLTFGGGTEVEIKR
notes: also called Fab clone 853; 853 (G)
B4: Fab fragment of antibody from clone 838 (Fab, V domains shown)
VH: QVQLVESGGGVVQPGTSLRLSCAASGFTFSTFGMHWVRQAPGKGLEWVAVISYDGNKKYYADSVKGRFTISRDNSKNTLYLQVNSLRVEDTAVYYCAAQTPYFNESSGLVPDWGQGTLVTVSS
VL: DIQMTQSPSSLSASVGDRVSITCRASQGISNYLAWYQQKPGKVPKLLIYAASTLQSGVPSRFSGSGSGTDFTLTISSLQPEDVATYYCQKYNSAPQTFGQGTKVEIKR
notes: also called Fab clone 838; 838 (G)
B5: Fab fragment of antibody from clone 859 (Fab, V domains shown)
VH: QVQLVESGGGVVQPGRSLRLSCAVSGSSFSKYGIHWVRQAPGKGLEWVAVISYDGSKKYFTDSVKGRFTIARDNSQNTVFLQMNSLRAEDTAVYYCATGGGVNVTSWSDVEHSSSLGYWGLGTLVTVSS
VL: B4 VL with S20T, S30R, I48V, Y49F, K90R, Q96L, Q100G
notes: also called Fab clone 859; 859 (G)
B6: Fab fragment of antibody from clone 816 (Fab, V domains shown)
VH: EVQLLESGGGLVQPGGSLRLSCVASGFTFSTYAMTWVRQAPGKGLEWVSVIRASGDSEIYADSVRGRFTISRDNSKNTVFLQMDSLRVEDTAVYFCANIGQRRYCSGDHCYGHFDYWGQGTLVTVSS
VL: DIVMTQSPLSLPVTPGEPASISCRSSQSLLHSDGRYYVDWYLQKPGQSPHLLIYLASNRASGVPDRFTGSGSGTDFTLKISRVEAEDVGVYYCMQGLHTPWTFGQGTKVDIKR
B7: antibody from clone 855 (antibody, human IgG1, kappa, V domains shown)
VH: QVQLVQSGPEVKKPGASVKVSCKASGYVLTNYAFSWVRQAPGQGLEWLGWISGSNGNTYYAEKFQGRVTMTTDTSTSTAYMELRSLRSDDTAVYFCARDLLRSTYFDYWGQGTLVTVSS
VL: DIQMTQSPSSVSASVGDRVTITCRASQAISNWLAWYQQKPGKAPKLLIYAASSLQSGVPSRFSGSGSGTDFTLTISGLQPEDFATYYCQQADTFPFTFGPGTKVDIKR
B8: antibody from clone 853 (antibody, human IgG1, kappa, V domains shown)
VH: B3 VH
VL: B3 VL
B9: antibody from clone 793 (antibody, human IgG1, kappa, V domains shown)
VH: QVQLVESGGGLVKPGGSLRLSCAASGFPFGDYYMSWIRQAPGKGLEWVAYINRGGTTIYYADSVKGRFTISRDNAKNSLFLQMNSLRAGDTALYYCARGLILALPTATVELGAFDIWGQGTMVTVSS
VL: DIQMTQSPSSLSASVGDRVTITCRASQSITGYLNWYQQKPGKAPKLLIYATSTLQSEVPSRFSGSGSGTDFTLTISSLQPEDFATYYCQQSYNTLTFGGGTKVEIKR
B10: antibody from clone 888 (antibody, human IgG1, kappa, V domains shown)
VH: QLQLQESGPGLVKPSETLSLTCTASGGSINSSNFYWGWIRQPPGKGLEWIGSIFYSGTTYYNPSLKSRVTISVDTSKNQFSLKLSPVTAADTAVYHCARHGFRYCNNGVCSINLDAFDIWGQGTMVTVSS
VL: DIVMTQSPLSLPVTPGAPASISCRSSQSLLRTNGYNYLDWYLQKPGQSPQLLIYLGSIRASGVPDRFSGSGSGTDFTLKISRVEAEDVGVYYCMQSLQTSITFGQGTRLEIKR
B11: antibody from clone 856 (antibody, human IgG1, kappa, V domains shown)
VH: QVQLVQSGAEVKKPGASVKVSCKASGYTFSNYGFSWVRQAPGRGLEWMGWISAYNGNTYYAQNLQGRVTMTTDTSTTTAYMVLRSLRSDDTAMYYCARDGNTAGVDMWSRDGFDIWGQGTMVTVSS
VL: DIVMTQTPLSLPVTPGEPASISCRSSQSLLDSNDGNTYLDWYLQKPGQSPQLLIYTFSYRASGVPDRFSGSGSGTDFTLKISRVEAEDVGVYYCMQRIEFPYTFGQGTKLEIKR
B12: antibody from clone 835 (antibody, human IgG1, kappa, V domains shown)
VH: QVQLVQSGAEVKRPGASVKVSCKASGYTFISYGFSWVRQAPGQGLEWMGWSSVYNGDTNYAQKFHGRVNMTTDTSTNTAYMELRGLRSDDTAVYFCARDRNVVLLPAAPFGGMDVWGQGTMVTVSS
VL: DIQLTQSPSFLSASLEDRVTITCRASQGISSYLAWYQQKPGKAPKLLLDAASTLQSGVPSRFSGSGSGTEFTLTISSLQPEDFATYYCQQLNSYPRTFGQGTKVDIKR
B13: antibody from clone 841 (antibody, human IgG1, kappa, V domains shown)
VH: QVQLVQSGAEVKKPGASVKVSCKASGYTFISFGISWVRQAPGQGLEWMGWISAYNGNTDYAQRLQDRVTMTRDTATSTAYLELRSLKSDDTAVYYCTRDESMLRGVTEGFGPIDYWGQGTLVTVSS
VL: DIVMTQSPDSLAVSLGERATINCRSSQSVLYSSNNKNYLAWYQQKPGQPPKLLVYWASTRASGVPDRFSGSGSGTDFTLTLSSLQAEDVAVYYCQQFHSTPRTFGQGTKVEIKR
B14: antibody from clone 816 (antibody, human IgG1, kappa, V domains shown)
VH: B6 VH
VL: B6 VL
B15: Palivizumab (antibody, V domains shown)
VH: QVTLRESGPALVKPTQTLTLTCTFSGFSLSTSGMSVGWIRQPPGKALEWLADIWWDDKKDYNPSLKSRLTISKDTSKNQVVLKVTNMDPADTATYYCARSMITNWYFDVWGAGTTVTVSS
VL: DIQMTQSPSTLSASVGDRVTITCKCQLSVGYMHWYQQKPGKAPKLLIYDTSKLASGVPSRFSGSGSGTEFTLTISSLQPDDFATYYCFQGSGYPFTFGGGTKLEIK

Positions count from the first letter of the chain named.
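Wherever Kd is given: antigen immobilised on CM5 chip at very low density (about 50 RU), rate constants fitted globally with a 1:1 Langmuir model, Fabs obtained by enzymatic cleavage.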
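Wherever koff is given: antigen immobilised on CM5 chip at very low density (about 50 RU), rate constants fitted globally with a 1:1 Langmuir model, Fabs obtained by enzymatic cleavage.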
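Wherever kon is given: antigen immobilised on CM5 chip at very low density (about 50 RU), rate constants fitted globally with a 1:1 Langmuir model, Fabs obtained by enzymatic cleavage.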
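Wherever t1/2 is given: antigen immobilised on CM5 chip at very low density (about 50 RU), rate constants fitted globally with a 1:1 Langmuir model, Fabs obtained by enzymatic cleavage.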

Sequence of RSV protein F (fusion glycoprotein), recombinant or purified (P03420 26-109, chain 1 of 2): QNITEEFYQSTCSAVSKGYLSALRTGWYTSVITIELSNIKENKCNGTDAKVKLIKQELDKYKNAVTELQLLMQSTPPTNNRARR
Sequence of RSV protein F (fusion glycoprotein), recombinant or purified (P03420 137-524, chain 2 of 2): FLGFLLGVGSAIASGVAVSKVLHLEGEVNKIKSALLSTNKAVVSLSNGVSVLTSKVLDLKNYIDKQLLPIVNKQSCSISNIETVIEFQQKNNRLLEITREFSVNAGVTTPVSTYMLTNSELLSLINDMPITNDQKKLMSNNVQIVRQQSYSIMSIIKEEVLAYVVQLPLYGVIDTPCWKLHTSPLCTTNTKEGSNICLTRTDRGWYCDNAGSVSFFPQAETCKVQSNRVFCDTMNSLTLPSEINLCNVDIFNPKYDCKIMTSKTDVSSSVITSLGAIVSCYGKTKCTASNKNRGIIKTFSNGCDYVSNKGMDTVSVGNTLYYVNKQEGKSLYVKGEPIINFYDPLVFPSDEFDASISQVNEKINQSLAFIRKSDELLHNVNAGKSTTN

The first experiment deals with T1, soluble recombinant G protein (amino …). Description: SPR (Biacore 3000), Fab over immobilised recombinant antigen. (In SPR one partner is held on a chip, and binding of the other changes the refractive index at the surface.)
B1: the Kd was 340 pM, the koff amounted to 0.000171 s⁻¹, the kon amounted to 498000 M⁻¹ s⁻¹ and the t1/2 was found to be 1.13 h.
For B2, in that order: 480 pM, 0.000403 s⁻¹, 833000 M⁻¹ s⁻¹ and 0.478 h.
For B3, in that order: 790 pM, 0.0014 s⁻¹, 1.77e+06 M⁻¹ s⁻¹ and 0.138 h.
On to B4, for which the dissociation constant Kd was 190 pM, the off-rate constant (koff) was 5.06e-05 s⁻¹, the kon amounted to 264000 M⁻¹ s⁻¹ and the t1/2 came to 3.83 h.
For B5, in that order: 120 pM, 4.63e-05 s⁻¹, 380000 M⁻¹ s⁻¹ and 4.17 h.
For B6, in that order: 90 pM, 0.000178 s⁻¹, 2.02e+06 M⁻¹ s⁻¹ and 1.08 h.

Another experiment addresses RSV G protein (receptor-binding glycoprotein) (human respiratory syncytial virus, …). Nature of the experiment: cell-based or functional assay.
Turning to B7, the “EC50, PRNT with complement, RSV subtype A” value was 6.35 µg/mL.
Same read-out and setting: for B8 the value was 1.49 µg/mL; for B9, 2.52 µg/mL; for B10, 0.14 µg/mL.

The target of another experiment is T2, recombinant human fractalkine (CX3CL1; …). Nature of the experiment: ELISA.
Regarding B11, the binding result is given as “no binding”.
The same measure, in the same setting: next, B12: “no binding”; B13: “no binding”; B7: “no binding”.
Turning to B8, the binding result was “no binding”.
For B9, the binding result is recorded as “no binding”.
With B10, the binding result is “no binding”.
On the same count and under the same terms, for B14 the value was “no binding”.

A further experiment concerns the target RSV protein F (fusion glycoprotein), recombinant or purified (human respiratory syncytial virus, …, UniProt P03420 26-109; P03420 137-524). Nature of the experiment: cell-based or functional assay.
As to B15, the “EC50, PRNT with complement, RSV subtype A” value amounted to 0.14 µg/mL.
